Reference: the supplement of paper PMC9112550, “Optimization of the antimicrobial peptide Bac7 by deep mutational scanning” (BMC Biology, 2022)

System: Escherichia coli TOP10
Experiment: shrunken log2 fold change of peptide-encoding DNA abundance (4.5 h post-induction vs induction); higher = less antimicrobial activity (less host growth inhibition)
Details: time post-induction: 4.5 h; library: site-saturation at positions 5, 18, 19, 20
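Note: peptides expressed intracellularly from a pBAD plasmid library in pooled LB shake-flask culture, induced with 0.3% L-arabinose, DNA abundance read by NGS, three biological replicates, DESeq2 with apeglm shrinkage.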

Sequence | shrunken log2 fold change
RRIRFRPPRLPRPRPRPECVPRP | 0.0137
RRIRFRPPRLPRPRPRPEDAPRP | 0.00922
RRIRFRPPRLPRPRPRPEDGPRP | 0.333
RRIRFRPPRLPRPRPRPEDLPRP | 0.143
RRIRFRPPRLPRPRPRPEDQPRP | 0.502
RRIRFRPPRLPRPRPRPEERPRP | 0.477
RRIRFRPPRLPRPRPRPEFFPRP | -0.153
RRIRFRPPRLPRPRPRPEGEPRP | -0.0563
RRIRFRPPRLPRPRPRPEHIPRP | -0.161
RRIRFRPPRLPRPRPRPEIEPRP | 0.0594
RRIRFRPPRLPRPRPRPEIHPRP | -0.227
RRIRFRPPRLPRPRPRPEINPRP | -0.00788
RRIRFRPPRLPRPRPRPELKPRP | -0.0455
RRIRFRPPRLPRPRPRPELQPRP | 0.348
RRIRFRPPRLPRPRPRPELYPRP | 0.0341
RRIRFRPPRLPRPRPRPEMNPRP | -0.253
RRIRFRPPRLPRPRPRPENDPRP | 0.0619
RRIRFRPPRLPRPRPRPENHPRP | -0.84
RRIRFRPPRLPRPRPRPEQGPRP | 0.313
RRIRFRPPRLPRPRPRPEQNPRP | 0.264
RRIRFRPPRLPRPRPRPERKPRP | 0.0154
RRIRFRPPRLPRPRPRPESVPRP | 0.257
RRIRFRPPRLPRPRPRPETKPRP | -0.0125
RRIRFRPPRLPRPRPRPEVLPRP | -0.0031
RRIRFRPPRLPRPRPRPEWKPRP | 0.0211

Sequence | shrunken log2 fold change
RRIRFRPPRLPRPRPRPEYRPRP | -0.218
RRIRFRPPRLPRPRPRPEYVPRP | -0.15
RRIRFRPPRLPRPRPRPFAMPRP | -0.326
RRIRFRPPRLPRPRPRPFASPRP | -0.705
RRIRFRPPRLPRPRPRPFEHPRP | -0.0558
RRIRFRPPRLPRPRPRPFELPRP | -0.0457
RRIRFRPPRLPRPRPRPFETPRP | -0.158
RRIRFRPPRLPRPRPRPFFRPRP | -0.213
RRIRFRPPRLPRPRPRPFFYPRP | -0.308
RRIRFRPPRLPRPRPRPFHCPRP | -0.102
RRIRFRPPRLPRPRPRPFIFPRP | -0.544
RRIRFRPPRLPRPRPRPFIMPRP | -0.655
RRIRFRPPRLPRPRPRPFKEPRP | -0.173
RRIRFRPPRLPRPRPRPFMCPRP | -0.98
RRIRFRPPRLPRPRPRPFNQPRP | -0.161
RRIRFRPPRLPRPRPRPFPTPRP | -0.0582
RRIRFRPPRLPRPRPRPFQDPRP | 0.0171
RRIRFRPPRLPRPRPRPFQNPRP | -0.041
RRIRFRPPRLPRPRPRPFQPPRP | -0.334
RRIRFRPPRLPRPRPRPFRIPRP | -0.687
RRIRFRPPRLPRPRPRPFRYPRP | -0.151
RRIRFRPPRLPRPRPRPFTAPRP | -0.662
RRIRFRPPRLPRPRPRPFTSPRP | -0.316
RRIRFRPPRLPRPRPRPFVDPRP | -0.121
RRIRFRPPRLPRPRPRPFWAPRP | 0.166

Sequence | shrunken log2 fold change
RRIRFRPPRLPRPRPRPFWDPRP | -0.374
RRIRFRPPRLPRPRPRPFWYPRP | -0.102
RRIRFRPPRLPRPRPRPGAEPRP | 0.286
RRIRFRPPRLPRPRPRPGDFPRP | -0.209
RRIRFRPPRLPRPRPRPGEWPRP | -0.0225
RRIRFRPPRLPRPRPRPGFEPRP | -0.0266
RRIRFRPPRLPRPRPRPGFHPRP | -0.416
RRIRFRPPRLPRPRPRPGFQPRP | 0.0959
RRIRFRPPRLPRPRPRPGFWPRP | 0.24
RRIRFRPPRLPRPRPRPGGDPRP | 0.37
RRIRFRPPRLPRPRPRPGGHPRP | -0.00918
RRIRFRPPRLPRPRPRPGGIPRP | -0.0183
RRIRFRPPRLPRPRPRPGGPPRP | 0.511
RRIRFRPPRLPRPRPRPGHCPRP | 0.0688
RRIRFRPPRLPRPRPRPGHDPRP | 0.062
RRIRFRPPRLPRPRPRPGHLPRP | -0.459
RRIRFRPPRLPRPRPRPGIHPRP | -0.0365
RRIRFRPPRLPRPRPRPGITPRP | -0.45
RRIRFRPPRLPRPRPRPGKHPRP | -0.294
RRIRFRPPRLPRPRPRPGKYPRP | -0.586
RRIRFRPPRLPRPRPRPGLHPRP | 0.159
RRIRFRPPRLPRPRPRPGMNPRP | -0.147
RRIRFRPPRLPRPRPRPGNWPRP | 0.724
RRIRFRPPRLPRPRPRPGPMPRP | 0.104
RRIRFRPPRLPRPRPRPGRHPRP | 0.0867
